T1: CHL1 (Arabidopsis thaliana, UniProt Q05085)
T1 construct: gene NPF6.3; cRNA-injected Xenopus laevis oocytes, positive control
T1 sequence (Q05085 1-590): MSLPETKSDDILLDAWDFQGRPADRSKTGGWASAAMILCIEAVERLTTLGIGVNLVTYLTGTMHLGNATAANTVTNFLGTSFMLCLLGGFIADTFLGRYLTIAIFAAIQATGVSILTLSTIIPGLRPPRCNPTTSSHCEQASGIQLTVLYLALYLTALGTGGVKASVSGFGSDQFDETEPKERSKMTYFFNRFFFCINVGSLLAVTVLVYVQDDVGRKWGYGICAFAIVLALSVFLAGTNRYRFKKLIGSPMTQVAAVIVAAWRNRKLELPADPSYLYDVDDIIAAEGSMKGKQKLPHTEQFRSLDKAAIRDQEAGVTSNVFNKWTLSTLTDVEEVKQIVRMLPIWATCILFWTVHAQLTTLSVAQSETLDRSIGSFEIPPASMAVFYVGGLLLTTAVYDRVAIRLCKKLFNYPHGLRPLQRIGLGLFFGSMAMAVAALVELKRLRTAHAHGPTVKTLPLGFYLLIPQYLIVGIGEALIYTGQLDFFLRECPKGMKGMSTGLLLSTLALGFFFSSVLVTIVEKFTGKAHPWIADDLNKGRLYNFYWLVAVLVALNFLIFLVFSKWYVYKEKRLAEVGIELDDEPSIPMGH

B1: NPF5.11 (Arabidopsis thaliana) (protein)
chain: MAITYSSADELGNTTEGFLEIRENTSGGWKSARLIIVVQMAERFAYFGIASNLIMYLTGPLGESTAAAAANVNAWTGTVAFLPLLGGFLADSYLGRFRTIIISSSLYILGLGLLSFSTMIPSHQSKDSNQLQETIFFFSLYLVAIGQGGYNPCIKVFGADQFDGNDHKEARDKSSFFNWLMFGNCISILTTRLVSTYIQENLSWSLGFGIPSVSMLLSLFLFLLGTTSYRFSTERVGKKNPFARISRVFMEALKNRRQPDLDIANANANETLLLLAHQSSKQFRFLDRAAISCELAEIEEAKAVLRLIPIWITSVVYTIVHAQSPTFFTKQGATMDRSISPGLLVPAATLQSFINLSVVVFIPIYDRLLVPFARSFTQNSSGITTLQRIGTGIFLSILAMVLAALVETKRLQAARDELSIPMSVWWLIPQYVIFGVSDMFTMVGLQEFFYGQVPSELRSVGMALNLSIYGAGNYLSSFMISVIDKITNQYGQRSWFDNDLDQAHLDYFYWLLACLGFIGFAFYLWFAKSYVYSRSNTF
notes: cDNA in oocyte vector pOO2, cRNA-injected Xenopus laevis oocytes; EYFP fusion used for localization
B2: NPF5.12 (Arabidopsis thaliana) (protein)
chain: MSTSIGDNETGAIVSNENVEFSVDFRGNPSIRSSSGAWKSSGFTMCAEVAEKFAYFGIASNLITYFTEALGESTAVAASNVNLWLGTAAFLPLIWGSIADSFLGRFRTILLTSSFYIMGLGLLTFSATIPSLCNDQETRESCVSQVKVIIFFCALYLIALGEGGFKVCLRAFGADQFDEQDPNESKAKSSYFNWLYFAISIGILTTRLVTNYVQENLSWALGYAIPCLSMMLALFLFLLGIKTYRFSTGGEGRQGKKHDNPFVRIGRVFVAAARNRRQTPSDTCLLLPNESTKKFRFLDRAVISCDSYEVEEAKAVLSLIPIWLCSLVFGIVFAQSPTFFTKQGSTMDRSISSTLQVPAATLQCFISLAILVFIPIYDRLFVPIARSITRKPAGITTLQRISTGIFLSIISMVIAALVEMKRLKTARDHGLVDSPKATVPMSVCWLIPQYILFGVSDVFTMVGLQEFFYGEVPPQLRSMGLALYLSIIGIGNFLSSFMVSVIEEATSQSGQVSWFSNNLNQAHLDYFYWLLACLSSLAFIFTVYFAKSYLYNSPK
notes: as for B1
B3: NPF5.16 (Arabidopsis thaliana) (protein)
chain: MAIAEEEAALIEDSVSDSVDHRGLPAGKSSTGGWRSAWYIIGVEVGERFAYFGIGSNLITYLTGPLGQSTATAAVNVNTWSGTASILPVLGAFIADAYLGRYRTIVVASLIYILGLGLLTLSSILILMGLSEQRQHNRNASAKPFFWVNILFFCSLYLVAIGQGGHKPCVQAFGADQFDVGDPKERISRGSFFNWWFLSLSAGITLSIIVVVYVQDNVNWALGFGIPCLFMVMALALFLFGRKTYRYPRGDREGKNNAFARIGRVFLVAFKNRKLKLTHSGQLEVGSYKKCKGQLEFLAKALLPGEGGVEPCSSRDVEDAMALVRLIPIWITSVVSTIPYAQYATFFTKQGVTVDRKILPGFEIPPASFQALIGLSIFISVPTYERVFLPLARLITKKPSGITMLQRIGAGMVLSSLNMVVAALVEMKRLETAKEHGLVDRPDATIPMSIWWFVPQYLLLGMIDVFSLVGTQEFFYDQVPTELRSIGLALSLSAMGLASFLSGFLITVINWATGKNGGDSWFNTNLNRAHVDYFYWLLAAFTAIGFLAFLLLSRLYVYRRVDQV
notes: as for B1

Key:
CHL1 = target: T1, CHL1; test: […]-nitrate uptake in cRNA-injected Xenopus oocytes, mass spectrometry; type: cell-based; settings: pH 5.5, 0.25 mM 15N-nitrate, 12 h; positive control; labelled compound (15N)
[1] = substrate: O=[N+]([O-])O; test: cells, lysate or membranes; type: cell-based, Arabidopsis thaliana; settings: pH 5.5, 1.5 h, 0.25-30 mM, labelled compound (15N)

Molecule	15N-nitrate uptake in cRNA-injected Xenopus oocytes, mass spectrometry (CHL1)	Km [1] [µM]
O=[N+]([O-])O [nitrate]	CHL1-injected oocytes still showed high uptake activity	
B1		2570
B2		4840
B3		2910
